# Source: the RNAGym collection of RNA variant scans (doi:10.1073/pnas.2313332121)
# B1: TPR t1 (parent)
# chain: GACCAAUCUGCCCUCAGAGCUCGAGAACAUCUUCGGAUGCAGAGGAGGCAGGCUUCGGUGGCGCGAUAGCGCCAACGUCCUCAACCUCCAAUGCAUCCCACCACAUGAUGAUGCCUGAAGAGCCUUGGUUUUUUG
# Variants of: B1
# Assay: polymerase ribozyme fitness, log enrichment relative to wild type (log ratio); higher = more active; in vitro selection for triplet polymerase activity
# In short: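 Fitness compares each genotype's enrichment to that of the wild type on a logarithmic scale, averaging replicates with inverse-variance weights. The logarithm is base 2. Enrichment came from Illumina sequencing of input and output libraries after one triplicate round of in vitro selection, which included frozen incubation at −7 °C, of PCR-built, transcribed mutant libraries of each subunit of a heterodimeric triplet polymerase ribozyme. Only genotypes with ≥10 input reads and ≥1 read per output were kept.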
row,Variant,polymerase ribozyme fitness (log ratio)
1,C49A C73A C89U A105U,-3.83
2,A50C C124A,0.557
3,C49G C62A A100U,-2.34
4,C49U U54A U92C G120C G128A,-4.05
5,C49U G120C,0.88
6,C49U G120U,-0.184
7,C49U G61U C86A,-1.79
8,G48A C73A G127C,-1.15
9,A50C G57U G69A G120A G127A,-3.95
10,C49U G63C C124U,0.36
11,C49G G61C,-2.12
12,C49A G135U,-1.83
13,A50G C64U A84U,-0.379
14,C49U G60U,-0.405
15,C49U G60C,-0.958
16,G48C C104A C124A,-0.812
17,A50G G63U A66G U130A,-4.03
18,G48U C53A C62U C82U U106A A108G,-1.03
19,C49A C79U C114U G120U,-4.69
20,C49U C62A C115A G122A,-2.37
21,C49U U55G,-0.735
22,C49U A90G C124A,1.48
23,A50C C72U G77U C99A U116A G120C C123U,-8.09
24,G48A G128U,-2.69

row,Variant,polymerase ribozyme fitness (log ratio)
1,G48U G58A G122A,-1.21
2,C49G G120U,0.305
3,G48C G69U U130C,-0.222
4,C49U C62U G77A U78G C80G A90C G107U C115G G120C,-7.16
5,G48A C80A,-2.53
6,G48U C49A C115U U133C,-2.27
7,C49U G51U G71A C86U,-7.37
8,G48A U112A U125G G127C,-1.12
9,A50C G61U,-0.0844
10,A50G G51U C89A C124U,-4.23
11,C49U C64U,-0.897
12,A50G C79G U87G,-0.314
13,A50C A100C C104U G120C G127U,0.167
14,G48A G117C,-3.17
15,G48C C79U G128C,-4.29
16,C49A C94A A103C,-5.92
17,C49U G65C C104G C123A,-7.83
18,G48U C88G G113C A121C,-3.7
19,G48U A91U C123U G127U,-2.98
20,C49A U96G,-0.658
21,C49G C62G,-3.46
22,G48U G63U C86U,-1.38
23,C49A G77A C82A U92C G113U C114U,-2.49
24,C49G G57U C82G U96G,-2.49

row,Variant,polymerase ribozyme fitness (log ratio)
1,G48C A100U,-1.76
2,C49A G69U,0.034
3,C49A U55C,-1.24
4,G48A C88U U96A,-1.74
5,C49U C73G,-0.732
6,C49G G60A A75U G93U,-3.65
7,A50C G52C C56G G63A G77U,-6.51
8,G48U A50U G60A C86G,-2.89
9,G48U G57U G63A U96G A100C C102G G120C,-6.73
10,G48A U112C U133G,0.699
11,C49U C94A,-2.8
12,G48C G60C G110A,-2.42
13,C49G G63U U92C,-3.98
14,C49U G57U C79A,-3.24
15,G48U G110A C124G U133A,-1.53
16,C49U G61U,-0.402
17,G47U U131G,-1.85
18,G48A C85A,-0.739
19,C49A C56A C64U U130C,-0.336
20,C49A C72U G77U C115A,-1.36
21,C49U C73A C114U,-2.58
22,G48U A111C,-0.214
23,A50C C56U,-0.0268
24,C49A A105C,-2.48

row,Variant,polymerase ribozyme fitness (log ratio)
1,C49G C70G,-4.79
2,C49G C70A,-2.2
3,C49U G110A,-1.45
4,C49A A68G A90U,-6.08
5,G48U G57C U130C,0.0456
6,C49U C80G,-5.44
7,C49U U106A C114U,-4.43
8,G48A C64U A111G,-0.284
9,C49A C94U U116A,-3.07
10,G48A G61U C64U A84U,-3.63
11,C49A G60A G135C,-0.655
12,C49A A84C C99U,-3.55
13,A50G C73A U106G,-1.39
14,C49A U55C G61C C104U,-2.02
15,A50G G52C G71U C79A G110U,-4.97
16,A50C C53U C72U G127A U133A,-3.63
17,C49U U59G C72U,-1.12
18,C49A A118G,-0.216
19,C49A C56A U59A C73G C114A G128C,-8.01
20,A50G C56G A103C C115G,-5.53
21,G48A C70A C86G G107C G110U,-5.84
22,A50G G57U C79A C115A,-1.84
23,G48A C64U C89G C114U U126G,-6.43
24,G48A G61C C88A C97U C115G A119G U126A,-3.38

row,Variant,polymerase ribozyme fitness (log ratio)
1,G48A C82U,-0.23
2,A50C C88A U130C U133A,-0.495
3,C49A A91U A95G A100C,-6.08
4,C49G C98G,-4.99
5,G48A C101U,-2.29
6,A50G G69U C86G,-0.754
7,G48U C56A A105G A111G,-5.01
8,G48A C72U U81C C102A A121C,-0.882
9,C49G U96A U112A,-0.269
10,C49A C56U G120U,0.2
11,A50G C89A,-1.48
12,C49A C72A C73U C97G C123A,-5.81
13,C49A C88A G113U A119U G128U,-6.41
14,G48A C62U,-0.525
15,A50C A75G A95C,-0.114
16,C49U C70U,-1.33
17,G48U U54G,-0.42
18,A50C C62A U106A A111G C114U C123A,-5.42
19,C49A G113C G120U,-4.69
20,C49G C70U U129A,-2.63
21,G48A G71C U96C,-1.75
22,C49U G51U,-5.95
23,C49A C72G C89G G113U,-5.04
24,G48C C56G G110U,-1.56

row,Variant,polymerase ribozyme fitness (log ratio)
1,C49A C115G,-1.85
2,A50G G71A,-1.41
3,C49U G52A C73G A121U,-1.14
4,G48A C49U G61U U78A G122A U126A,-3.77
5,G48A A83U C102A,-2.24
6,A50G C64U,0.0869
7,G48A U106A,-0.42
8,G48U U59A U78G U116A,-3.29
9,C49G G57U,-0.441
10,G48U A84C C115A,-1.64
11,C49U C62U C114G G117C U125C U129C,-7.74
12,C49U C53U G60A G122A U133G,-1.32
13,C49U C124G,0.761
14,A50C C70U A105U,-3.71
15,G48C G60U C86A C94U U106C G117C,-6.53
16,G48U U59C C86G,-2.19
17,G47U U87G U129A,-4.44
18,C49U C89U,0.0169
19,A50G G51A,-1.11
20,G48C C53A C124U G128C,-3.02
21,C49G U55C C98U,-2.01
22,G48A U67C,-3.66
23,G48U C73U U109A G110U A119U,-4.88
24,G48U C72U,-1.19

row,Variant,polymerase ribozyme fitness (log ratio)
1,C49U C62A U96C,-1.91
2,C49G G77U,-1.25
3,C49A C72U C97G G128C,-6.74
4,G48A G63A A75G,-1.21
5,C49U G71A,-1.46
6,C49U G71C,-2.01
7,C49U G71U,-0.77
8,C49U G60A C82U U106A G120C G135A,0.366
9,G48A C76U C85G C89A U96C,-5.66
10,G48A G71C G117A,-1.66
11,C49U A119U C123U,0.0952
12,C49A G77A U106C C114A,-2.9
13,G48C G71C C123G,-0.00854
14,C49U G63A U67C C85U G93U G110C C124A,-8.14
15,C49A G52A G57A U78A,-1.73
16,A50G C82A G120U,-0.452
17,G48U G57U A75G A83C G117A,-4.82
18,C49A C86A U129G,-1.96
19,G48U G60C C70U U78G,-5.9
20,C49G G51C A119U U133C,-3.18
21,C49U C85G U96G,-2.99
22,C49U A68G A84C U131A,-4.91
23,G48U U59A G60U G122A C123A,-1.51
